Data on 3 proteins can be found in patent US20230016396A1.

The target in data set [1] is T1, M15-K(biotin)-AAR peptide (SEQ ID NO: 12).
T1 chain: KAAR

Data set [2] has as its target T2, M15-L-P1-AR target polypeptide with P1 = A.
T2 chain: LAAR

The target in data set [3] is T3, M15-L-P1-AR target polypeptide with P1 = Q.
T3 chain: LQAR

The target of data set [4] is T4, M15-L-P1-AR target polypeptide with P1 = L.
T4 chain: LLAR

The target in data set [5] is T5, M15-L-P1-AR target polypeptide with P1 = V.
T5 chain: LVAR

Data set [6] deals with T6, M15-L-P1-AR target polypeptide with P1 = I.
T6 chain: LIAR

The target in data set [7] is T7, M15-L-P1-AR target polypeptide with P1 = M.
T7 chain: LMAR

Data set [8] addresses T8, M15-L-P1-AR target polypeptide with P1 = D.
T8 chain: LDAR

Data set [9] concerns the target T9, M15-L-P1-AR target polypeptide with P1 = E.
T9 chain: LEAR

B1: engineered dipeptidyl peptidase clone (SEQ ID NO: 6) derived from dipeptidyl peptidase from Thermomonas hydrothermalis (protein)
chain: DEGMWVPQQLPEIAGALKKAGLKLDPKQLSDLTGDPMGAVVSLGGCTGSFVSPQGLVATNHHCAYGAIQLNSTPEKNLIKDGFNAPTQADELSAGPNARIYVLEGITDVTAQAKAAMAAAGNDPVARANALEAFEKKITSDCEAEPGYRCRVYSFMGGITYRLFKNLEIKDVRLVYAPPSSVGKFGGDIDMGMWPTHTGDFSFYRAYVGKDGKPAPYSKDNVPYRPKHWLKIADTPLGEGDFVMVAGYPGRTDRYALVAEFENTQNWLYPAISKAYKDQIALVEAAAKDNPEIAVKYAAALAGWNRTSKNFDGQLEGFKRNDVLAIKRREEAAVLEWLRARGKAGTPALEAHAALVKLVADTARTQERDLVLGSFNRTGIIGVAVNLYRLAIERQKPDAEREPGYQQRDLPVIEGSLKQMERRYVPAMDRQLRAYWLDRYVALPAAQHVAAVDAWLGGSDKAAAEAALARLDQSRLGSLEERLKWFNADRAAFEASTDPAIQYAVAVMPTLLAMEQQAKTRYGVALEARPRYLQAVVDYKKSKGQAVYPDANSTLRITYGHVKGYTGLNGKVYTPFTTLEEVAAKETGVEPFDNPKALLEAVAAKRYAGLADARLGTVPVNFLADLDITGGNSGSPVLDANGRLVGLAFAVTLESVASNWVFDPVLTRMISVDQRYMRWIMQEVMPAPQLLEELGVPPRQ
B1: the “percentage of conversion to cleavage product (HPLC, UV absorbance at 254 nm)” value in data set [1] was “about 10% of the model peptide was converted to the cleavage product, M15-K(biotin)-A”.

B2: M15-L_Z001 (first selected modified cleavase) (protein)
chain: MHKTRLVAALAAALATLAPAAWADEGMWVPQQLPEIAGALKKAGLKLDPKQLSDLTGDPMGAVVSLGGCTGSFVSPQGLVATNHHCAYGAIQLNSTPEKNLIKDGFNAPTQADELSAGPNARIYVLEGITDVTAQAKAAMAAAGNDPVARANALEAFEKKITSDCEAEPGYRCRVYSFMGGITYRLFKNLEIKDVRLVYAPPSSVGKFGGDIDMGMWPTHTGDFSFYRAYVGKDGKPAPYSKDNVPYRPKHWLKIADTPLGEGDFVMVAGYPGRTDRYALVAEFENTQNWLYPAISKAYKDQIALVEAAAKDNPEIAVKYAAALAGWNRTSKNFDGQLEGFKRNDVLAIKRREEAAVLEWLRARGKAGTPALEAHAALVKLVADTARTQERDLVLGSFNRTGIIGVAVNLYRLAIERQKPDAEREPGYQQRDLPVIEGSLKQMERRYVPAMDRQLRAYWLDRYVALPAAQHVAAVDAWLGGSDKAAAEAALARLDQSRLGSLEERLKWFNADRAAFEASTDPAIQYAVAVMPTLLAMEQQAKTRYGVALEARPRYLQAVVDYKKSKGQAVYPDANSTLRITYGHVKGYTGLNGKVYTPFTTLEEVAAKETGVEPFDNPKALLEAVAAKRYAGLADARLGTVPVNFLADLDITGGNSGSPVLDANGRLVGLAFAGTLESVASNWVFDPVLTRMISVDQRYMRWIMQEVMPAPQLLEELGVPPRQ
On to B2, for which the “cleavage of the M15-L-labeled P1 residue from the polypeptide” value in data set [2] is recorded as “provided 100% cleavage for polypeptides with the following M15-L-labeled P1 residues: A, I, L, M, Q, V”; in data set [3], “provided 100% cleavage for polypeptides with the following M15-L-labeled P1 residues: A, I, L, M, Q, V”; in data set [4] it was “provided 100% cleavage for polypeptides with the following M15-L-labeled P1 residues: A, I, L, M, Q, V”; in [5], “provided 100% cleavage for polypeptides with the following M15-L-labeled P1 residues: A, I, L, M, Q, V”; in data set [6] it was “provided 100% cleavage for polypeptides with the following M15-L-labeled P1 residues: A, I, L, M, Q, V”; in data set [7], “provided 100% cleavage for polypeptides with the following M15-L-labeled P1 residues: A, I, L, M, Q, V”.

B3: M15-L_Z002 (protein)
chain: B2 chain
Consider B3, for which the “cleavage profile (cleavage efficiency)” value is “M15-L_Z002, having specificity towards D and E in the P1 position” in [8]; “M15-L_Z002, having specificity towards D and E in the P1 position” in [9].
